Source: US8415106B2, “Cell-based screen for agents useful for reducing neuronal demyelination or promoting neuronal remyelination” (Myelin Repair Foundation, Inc., priority 2005, dated 2013)

Columns and labels:
[1] = system: ER stress markers (BIP, CHOP, caspase-12); experiment: ER stress markers in the CNS of 14-day-old mice ectopically expressing IFN-γ (released from doxycycline at E14); assay type: in vivo; details: PND 14, DOX− from E14
Excerpt: To study the effect of INF-γ on the myelination of oligodendrocytes during mouse development, transgenic mice that allow for temporally regulated delivery of IFN-γ to the CNS using the tetracycline (tet) controllable system (Lin, et al. (2004) J. Neurosci. 24: 10074-10083) were generated. To drive tTA expression in astrocytes, the transcriptional regulatory region of the glial fibrillary acidic protein (GFAP) gene was chosen (Brenner, et al. (1994) J. Neurosci. 14: 1030-1037). GFAP/tTA mice were mated with TRE/IFN-γ mice to produce animals hemizygous for both transgenes. When these mice are maintained on doxycycline (DOX+), expression of the IFN-γ transgene is repressed (FIG. 10A); when the double transgenic mice are released from doxycycline (DOX−) INF-γ is expressed. For the purpose of these experiments, mice received doxycycline up to day 14 of development (E14), at which time the experimental animals (DOX−) stopped receiving doxycycline, while the control animals (DOX+) were continuously fed the dug. The mRNA for IFN-γ could be detected in the DOX− mice as early as 10 days after birth (data not shown).
Real time PCR analysis was performed to determine the levels of expression of INF-γ, MHC-1, BIP, CHOP, and caspase 12. The primers for the PCR reactions for BIP, CHP and caspase 12 are given in example 1. The sense and antisense primers for INF-γ were […] (SEQ ID NO: 39) and […] (SEQ ID NO: 40), respectively; and the sense and antisense primers for MHC-1 were MHC-I sense primer: ATTCCCCAAAGGCCCATGT (SEQ ID NO: 1); and MHC-I antisense primer: […] (SEQ ID NO: 2).
Western blot analysis was performed on the CNS of 14 day old mice to determine the expression of caspase-12 as described in Example 6.

[2] = system: developing oligodendrocytes and myelin; experiment: IFN-γ-overexpressing mice crossed to PLP/SOCS1 mice: tremor, oligodendrocyte density, G ratio, unmyelinated axons at postnatal day 21; assay type: in vivo; details: for Incidence of tremor: 172 × PLP/SOCS1 system
Excerpt: The transgenic mice MBP/IFN-γ and GFAP/tTA×TRE/IFN-γ (lines 184/110 and 184/67) that overexpress IFN-γ in the CNS have been described elsewhere (Corbin et al., 1996; Gao et al., 2000; Lin et al., 2004, 2005). Briefly, MBP/IFN-γ mice are transgenic animals in which IFN-γ expression is driven by the myelin basic protein (MBP) transcriptional control region (Gao et al., 2000). GFAP/tTA×TRE/IFN-γ are double-transgenic mice obtained by mating single-transgenic GFAP/tTA to single-transgenic TRE/IFN-γ (lines 110 and 67) mice. The two TRE/IFN-γ mouse lines, line 110 and line 67, used in the experiments produce different amounts of IFN-γ when crossed to GFAP/tTA mice (184/110 and 184/67) (Lin et al., 2004, 2005). GFAP/tTA×TRE/IFN-γ is a tetracycline-off-inducible system in which the glial fibrilary acidic protein (GFAP) transcriptional control region drives the expression of tTA, which in turn, binds to the TRE (tet responsive element) and initiates the expression of IFN-γ. Administration of doxycycline suppresses tTA DNA binding and IFN-γ expression, and doxycycline removal allows for temporally-controlled induction of IFN-γ expression (Gao et al., 1999).
IFN-γ-overexpressing mice were crossed to the PLP/SOCS1 mice in double-transgenic, (MBP/IFN-γ×PLP/SOCS1) and triple-transgenic (GFAP/tTA×TRE/IFN-γ×PLP/SOCS1) mating systems. MBP/IFN-γ×PLP/SOCS1 (172×PLP/SOCS1) mating was performed according to a standard mating protocol. The GFAP/tTA×TRE/IFN-γ×PLP/SOCS1 matings were performed in a 2-step mating process: GFAP/tTA mice were initially crossed to PLP/SOCS1 mice, and double-positive (184×PLP/SOCS1) offspring were then crossed to the TRE/IFN-γ lines 110 and 67, separately. This second mating step was performed according to the previously described “tet-off” protocol. Doxycycline 0.05 mg/ml (Sigma-Aldich) was added to the water of impregnated female mice until embryonic day 14, after which the animals were switched back to normal water, thereby allowing initiation of IFN-γ transcription, which peaks during the postnatal period (Lin et al., 2005).
The litters of the mating systems (F1 generation) were examined daily and sacrificed at postnatal day 21. Clinical evaluation included behavioral observation and challenged ladder walking to elicit tremor. Histological examination included quantitation of the number and density of oligodendrocytes and examination of the myelination patterns. Brain tissue was simultaneously obtained from each animal at the time of sacrifice to verify and measure the expression of IFN-γ and Flag-SOCS1 (see below). The clinical and histological findings were subsequently stratified according to genotype. All animal procedures were conducted in compliance with the National Institutes of Health Guide for Care and Use of Laboratory Animals and were approved by the Institutional Animal Care and Use Committee at The University of Chicago.
Oligodendrocyte cell density was assessed digitally using Axiovision software, at postnatal day 21, as previously described (Lin et al., 2005). The brains were sectioned sagittally through the corpus callosum dividing the brain in two symmetrical halves. Ten frozen sections from each half were prepared at 7 μm thickness, and numbered in the sequence of their preparation. The brains of three animals per study group were prepared in this fashion. Following the CC1 immunostaining the corresponding area of corpus callosum of each section was digitally selected and the corresponding total area obtained. CC1 cell counting was performed manually within the selected areas of each section, and the number of CC1 positive cells per square area (mm^2) calculated. The results were presented as mean±SD of CC1 (+) cells/mm^2 with n=3 animals per study group. […]

[3] = system: myelin basic protein (MBP); experiment: Hippocampal organotypic cultures (HOC), in vitro model of myelination, MBP Western blot; assay type: cell-based; details: 100 U/ml IFN-γ, 7 days, HOCs
Procedure: HOCs, were prepared and maintained as described previously (Kunkler and Kraig (1997) J Cereb Blood Flow Metab. 17:26-43), and were maintained in vitro for 7 days before use. SAL at various concentrations was combined with 100 U/ml IFN-γ and added to the HOC cultures for 7 days. […] After 7 days of 100 U/ml IFN-γ exposure, the levels of MBP decreased approximately 80% in the HOCs (FIG. 29).

[4] = 184/67×PLP/SOCS1 mice (IFN-γ and SOCS1)
[5] = 184/110×PLP/SOCS1 mice (IFN-γ and SOCS1)

B1: IFN-γ: pleotropic cytokine secreted by activated T lymphocytes and natural killer cells; recombinant rat IFN-γ added to cultures or transgenically expressed in mouse CNS (protein, UniProt P01581 23-156, looked up)
Interferon gamma: QGTLIESLESLKNYFNSSSMDAMEGKSLLLDIWRNWQKDGNTKILESQIISFYLRLFEVLKDNQAISNNISVIESHLITNFFSNSKAKKDAFMSIAKFEVNNPQIQHKAVNELIRVIHQLSPESSLRKRKRSRC
BIP expression [1]: approximately 1.6 times the control levels
CHOP expression [1]: ~2 times the control levels
caspase-12 expression [1]: strongly enhanced
Incidence of tremor ([2]; mice expressing IFN-γ only): 0%
Incidence of tremor ([2]; mice expressing both IFN-γ and SOCS1): 0%
G ratio (axon diameter/fiber diameter ratio) ([2]; 184/67 mice (IFN-γ only)): 0.95±0.04
percentage of unmyelinated axons ([2]; 184/67 mice (IFN-γ only)): 57%±7
oligodendrocytes lost ([2]; 184/67 mice (IFN-γ only) versus wild-type): approximately 40%
oligodendrocyte density ([2]; 184/67 mice (IFN-γ only), wild-type 144±5): 79±9 CC1 (+) cells/mm^2
G ratio (axon diameter/fiber diameter ratio) [2, 4]: 0.82±0.08
percentage of unmyelinated axons [2, 4]: 17%±4.5
oligodendrocytes lost ([2]; 184/67×PLP/SOCS1 mice (IFN-γ and SOCS1) versus PLP/SOCS1): approximately 15%
oligodendrocyte density ([2]; 184/67×PLP/SOCS1 mice (IFN-γ and SOCS1), PLP/SOCS1 142±5): 112±7 CC1 (+) cells/mm^2
percentage of unmyelinated axons ([2]; 184/110 mice (IFN-γ only)): 41%±6
oligodendrocytes lost ([2]; 184/110 mice (IFN-γ only) versus wild-type): approximately 20%
G ratio (axon diameter/fiber diameter ratio) ([2]; 184/110 mice (IFN-γ only), hypomyelination defined as G ratio >0.8): 0.89±0.02
oligodendrocyte density ([2]; 184/110 mice (IFN-γ only), wild-type 146±6): 115±8 CC1 (+) cells/mm^2
G ratio (axon diameter/fiber diameter ratio) [2, 5]: 0.75±0.03
percentage of unmyelinated axons [2, 5]: 13%±3
oligodendrocytes lost ([2]; 184/110×PLP/SOCS1 mice (IFN-γ and SOCS1) versus PLP/SOCS1): approximately 8%
oligodendrocyte density ([2]; 184/110×PLP/SOCS1 mice (IFN-γ and SOCS1), PLP/SOCS1 141±6): 129±6 CC1 (+) cells/mm^2
percentage of unmyelinated axons ([2]; MBP/IFN-γ×PLP/SOCS1 (172×PLP/SOCS1) littermates, regardless of genotype): less than 9%
decrease of MBP levels [3]: approximately 80%
